Test results: patent publication US20170137509A1 (AFFIRIS, published 2017)
Blank lines part the entries; values can stand above or below the binder they belong to.

Key:
[1] = biological target: T1, matrix-metalloproteinase-truncated Opn (MmpOpn) (human, UniProt P10451 17-166, limits assumed); experiment: ELISA on plates coated with recombinant human Opn, HRP anti-mouse IgG, OD 405 nm
T1 construct: Recombinant, expressed in HEK293 c18 cells; stop codon after 166 AA; also called 1-Opn-166; 6xHis-166 AA (N-terminal MMP-cleaved Opn)
T1 sequence (P10451 other isoform, or with tags, fused parts or gaps limits assumed): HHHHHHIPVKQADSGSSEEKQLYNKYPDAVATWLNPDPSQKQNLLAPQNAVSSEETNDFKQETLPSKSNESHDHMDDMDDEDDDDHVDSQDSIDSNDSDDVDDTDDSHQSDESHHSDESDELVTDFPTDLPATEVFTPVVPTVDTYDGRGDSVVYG
Description: (§1) ELISA plates (Nunc, Cat#439454) were coated with 1 μg/ml recombinant human Opn proteins (home-made or from PeproTech, Cat#120-35 as control) in 100 mM NaHCO3 pH=9,2 and blocked with 1% BSA in 1×PBS. Bound mouse anti-human monoclonal antibodies (BioGenes, 1 μg/ml) and the mouse serum used as positive control were detected using a HRP-conjugated goat anti-mouse IgG antibody ([…], Cat#115-035-068, 0.2 μg/ml). ABTS (0.68 mM ABTS in 0.1 M citric acid, pH=4.3) and 0.1% hydrogen peroxide was used as a substrate for the horse radish peroxidase (HRP). The substrate reaction was stopped by adding 1% SDS solution to the wells. The absorbance was read at 405 nm using a microplate reader (TECAN Sunrise).

full length Opn (flOpn) = biological target: T2, full length Opn (flOpn) (human, UniProt P10451 17-314); experiment: as above
T2 construct: Recombinant, expressed in HEK293 c18 cells as 'Strep-314 AA (full length Opn)-6xHis'; ELISA and Western blot also used PeproTech Cat#120-35 as control, and Western lanes 1-4 hold full length Opn proteins with different tag systems; also called Strep-314 AA (full length Opn)-6xHis; full length osteopontin; not shown: N-terminal OneStrep-tag
T2 sequence (P10451 other isoform, or with tags, fused parts or gaps): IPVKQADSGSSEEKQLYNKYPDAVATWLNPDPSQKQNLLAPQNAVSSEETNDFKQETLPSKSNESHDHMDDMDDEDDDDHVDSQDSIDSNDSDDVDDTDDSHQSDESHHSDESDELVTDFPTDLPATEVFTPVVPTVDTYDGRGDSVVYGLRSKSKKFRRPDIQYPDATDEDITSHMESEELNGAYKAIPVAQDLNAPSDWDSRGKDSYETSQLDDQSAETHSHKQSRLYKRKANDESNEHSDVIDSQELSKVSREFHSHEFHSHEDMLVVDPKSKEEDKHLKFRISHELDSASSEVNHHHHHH
Description: as §1

[2] = biological target: T3, biotinylated peptide ligand representing ThrOpn (SPR); experiment: SPR (Biacore 2000), biotinylated peptide on streptavidin chip, mAb injected at 2 ug/ml
Description: (§2) Binding analyses were performed on a Biacore 2000. The different biotinylated peptide ligands representing the different Opn products were immobilized on a streptavidin chip in one flow cell respectively, with a flow rate of 30 μl/min. The fourth flow cell is a reference cell without peptide. The peptides were dissolved in a DMSO solution and further diluted in HBS buffer (0.01M Hepes, 0.1M NaCl, 0.004M EDTA, 0.05% P20, pH=7.4). After immobilization, the chips in each flow cell were saturated with 1 μM D-Biotin. As a control, an unspecific serum was injected through all cells. The flow rate of the antibodies was 30 μl/min at a concentration of 2 μg/ml, volume injected 100 μl. The dissociation time was set at 500 sec. The chips were regenerated with 60 μl of 50 mM HCl. Off-rate values and KD values were calculated using the Biocore SPR software.
(§3) In order to define the binding strength of selected mAbs against their individual targets SPR analysis was performed using peptides representing the different Opn products. […] Thus in a situation where multiple washing steps are included (e.g. in the used functional cell based adhesion assay) the antibody will be washed away from its target. […] In a more physiological situation where antibody persistence is not influenced by steps depleting the antibody, mAb 4-4-2 is expected also display functional activity.

[3] = biological target: T4, biotinylated peptide ligand representing MmpOpn (SPR); experiment: as above
Description: as §2, §3

[4] = biological target: T4, biotinylated peptide ligand …; experiment: SPR (Biacore 2000), biotinylated peptide on streptavidin chip, mAb injected at 2 ug/ml; one value printed for 'ThrOpn and MmpOpn'
[5] = biological target: T3, biotinylated peptide ligand …; experiment: as above

B3: mAb 9-3-1 (antibody, IgG1, V domains shown)
VH: EVQLVETGGGLVQPKGALRLSCAVSGITFNTNGMNWVRQAPGRGLEWVARVRSKDYNFATYYADSVKDRFTISRDDSQSMLYLQMNNLRTEDTAMYYCVRPDYYGSSFAYWGQGTLVSVSA
VL: DVLMTQTPLSLPVSLGDQASISCRSSQSIVHSNGNTYLEWYLQKPGQSPKLLIYKVSNRFFGVPDRFSGSGSGTDFTLKISRVEAEDLGVYYCFQGSHVPWTFGGGTKLEIKR
notes: tested as a separate clone; also called mAb CMI 9-3
- binding result (full length Opn (flOpn)): no binding (tested: 1,00 µg/ml)
- Kd [3]: 0.97 nM
- koff [3]: 8.79e-05 s⁻¹

B4: mAb 21-5-4 (antibody, V domains shown)
VH: QVTLKESGPGMLKPSQTLSLTCSFSGFSLSTSGLGIGWIRQPSGKGLEWLAHISWDDSKYYNPSLKNRLTISKDTSRNQVFLKITNVGTADSATYFCARSGGGDSDWGQGTLVTVSA
VL: ANVLTQSPAIMSASPGEKVTMTCSANSSVNSIHWYQQKSSTSPKLWIYDTSKLASGVPGRFSGSGSGDSYSLTISSMEAEDVATYYCFQGSGYPLTFGGGTKLEIKR
notes: also called 21-5-4 mAb; Monoclonal Ab 21-5-4
- Kd [4]: 0.84 nM
- koff [4]: 1e-05 s⁻¹
- Kd [5]: 0.84 nM
- koff [5]: 1e-05 s⁻¹

More lines, now with the values ahead:

- binding result [1]: no binding (tested: 1,00 µg/ml)
- binding result (full length Opn (flOpn)): no binding (tested: 1,00 µg/ml)
- Kd [2]: 13.9 nM
- koff [2]: 0.00279 s⁻¹
B1: mAb 4-4-2 (antibody, V domains shown)
VH: QVTLKESGPGILQPSQTLSLTCSFSGFSLSTYGLGVSWIRQPSGKGLEWLAHIYWDDNKRYKSSLKSRLTISKDTSSNQVFLKITSVDTADTATYYCARGTSPGVSFPYWGQGTLVTVSA
VL: DIQMTQSPASLSASVGETVTITCRASENIYSYLAWYQQKQGKSPQFLVYNAKTLAEGVPSRFSGSGSGTQFSLKINSLQPEDFGSYYCQHHYGTPLTFGAGTKLELKR
notes: also called Monoclonal Ab 4-4-2

- binding result (full length Opn (flOpn)): no binding (tested: 1,00 µg/ml)
- Kd [3]: 1.12 nM
- koff [3]: 8.89e-05 s⁻¹
B2: mAb 7-5-4 (antibody, V domains shown)
VH: B3 VH
VL: B3 VL
notes: also called Monoclonal Ab 7-5-4
